Data on seven molecules can be found in article PMC6404062.

Assay [1] deals with Human IgG4 monoclonal antibody (human). Briefly: ELISA; data not shown: the same plates in DMEM with 5% FCS and 5 g/L ovalbumin, hIgG4-coated wells compared with control wells coated with 200 µL of 100 µg/mL lactoferrin in TBS. (In general: ELISA stands for enzyme-linked immunosorbent assay.)
The target is the same in assay [2]. The assay is described as follows: ELISA; hIgG4 coated on wells as in the screening; 2.5 × 10^11 phage particles in 100 µL per well in DMEM with 5% FCS and 5 g/L ovalbumin, in triplicate; original phage library assayed beside the clones.

Consider NVQYFAV [Clone 3 heptapeptide NVQYFAV, displayed on M13 phage], for which, in assay [1], the fold absorbance over lactoferrin-coated control wells is more than 3 fold. Besides, in assay [2], the ELISA signal was more than 0.85 AU, the fold ELISA signal over the original phage library is more than 4 fold and the fold absorbance over the original phage library is more than 2.5 fold.

In the case of TNIESLK [Clone 36 heptapeptide TNIESLK, displayed on M13 phage], the fold absorbance over lactoferrin-coated control wells in assay [1] is more than 3 fold. In assay [2], this molecule displayed a fold absorbance over the original phage library of more than 2.5 fold.

For QPQMSHM [Clone 34 heptapeptide QPQMSHM, displayed on M13 phage], the fold absorbance over lactoferrin-coated control wells in assay [1] is more than 3 fold. In addition, the fold absorbance over the original phage library in assay [2] is more than 2.5 fold.

In the case of NCHKCWN [Clone 40 heptapeptide NCHKCWN, displayed on M13 phage], in assay [1], the fold absorbance over lactoferrin-coated control wells is more than 3 fold. For the same molecule, in assay [2], the ELISA signal is more than 0.85 AU, the fold ELISA signal over the original phage library is more than 4 fold and the fold absorbance over the original phage library is more than 2.5 fold.

Consider CPSTHWK [Clone 1 heptapeptide CPSTHWK, displayed on M13 phage], for which the fold absorbance over lactoferrin-coated control wells in assay [1] is more than 3 fold. The molecule also gave a fold absorbance over the original phage library in assay [2] of more than 2.5 fold.

Take ASHTQKS [Clone 5 heptapeptide ASHTQKS, displayed on M13 phage]: in assay [1], the fold absorbance over lactoferrin-coated control wells is more than 3 fold. In assay [2], this molecule had a fold absorbance over the original phage library of more than 2.5 fold.

With SHLSKNF [Clone 44 heptapeptide SHLSKNF, displayed on M13 phage], the fold absorbance over lactoferrin-coated control wells in assay [1] was more than 3 fold. The fold absorbance over the original phage library in assay [2] was more than 2.5 fold.
